Data published in patent publication US20250002588A1 (DIAGONAL THERAPEUTICS, published 2025).
Numbering of substitutions follows the chain as printed.

B1: DGL651 (bispecific antibody)
chain 1: not shown
chain 2: EVQLLESGGGLVQPGGSLRLSCAASGFTFSDYYMTWIRQAPGKGLEWVSSISGGSTYYADSRKGRFTISRDNSENTLYLQMNSLRAEDTAVYYCARDFGVAGWFGQYGMDVWGQGTLVTVSSGGGGSGGGGSGGGGSQSVLTQPPSASGTPGQRVTISCTGSSSNIGAGYDVHWYQQLPGTAPKLLIYRSNQRPSGVPDRFSGSKSGTSASLAISGLRSEDEADYYCSSYAGNYNLVFGGGTKLTVLDKTHTCPPCPAPEAAGAPSVFLFPPKPKDTLMISRTPEVTCVVVDVSHEDPEVKFNWYVDGVEVHNAKTKPREEQYNSTYRVVSVLTVLHQDWLNGKEYKCKVSNKALPAPIEKTISKAKGQPREPQVCTLPPSRDELTKNQVSLSCAVKGFYPSDIAVEWESNGQPENNYKTTPPVLDSDGSFFLVSKLTVDKSRWQQGNVFSCSVMHEALHNHYTQKSLSLSPGWSHPQFEK
B2: DGL652 (bispecific antibody)
chain 1: not shown
chain 2: B1 chain 2
B3: DGL735 (bispecific antibody)
chain 1: B1 chain 2 with Y33W, S55T, A101S
chain 2: not shown
B4: DGL864 (bispecific antibody)
chain 1: not shown
chain 2: B1 chain 2 with Y32S, T35S, R62V, W103Y
B5: DGL734 (bispecific antibody)
chain 1: B1 chain 2 with Y33W, S55T, F98Y
chain 2: not shown
B6: DGL860 (bispecific antibody)
chain 1: not shown
chain 2: B1 chain 2 with T35N, R62V, Y107F
B7: DGL867 (bispecific antibody)
chain 1: not shown
chain 2: B1 chain 2 with T35N, R62V, Q106Y
B8: DGL861 (bispecific antibody)
chain 1: not shown
chain 2: B1 chain 2 with T35N, R62V, Y107F
B9: DGL737 (bispecific antibody)
chain 1: not shown
chain 2: B1 chain 2
B10: DGL732 (bispecific antibody)
chain 1: B1 chain 2 with Y33W
chain 2: not shown
B11: DGL653 (bispecific antibody)
chain 1: not shown
chain 2: B1 chain 2
B12: DGL865 (bispecific antibody)
chain 1: not shown
chain 2: B1 chain 2 with Y32S, T35S, R62V, W103Y
B13: DGL656 (bispecific antibody)
chain 1: B1 chain 2 with T35N, R62V, Q106Y
chain 2: not shown
B14: DGL862 (bispecific antibody)
chain 1: not shown
chain 2: B1 chain 2 with T35N, R62V, Y107F
B15: DGL868 (bispecific antibody)
chain 1: not shown
chain 2: B1 chain 2 with T35N, R62V, Q106Y
B16: DGL733 (bispecific antibody)
chain 1: B1 chain 2 with S55T
chain 2: not shown
B17: DGL866 (bispecific antibody)
chain 1: not shown
chain 2: B1 chain 2 with T35N, R62V, Q106Y
B18: DGL863 (bispecific antibody)
chain 1: not shown
chain 2: B1 chain 2 with Y32S, T35S, R62V, W103Y
B19: DGL731 (bispecific antibody)
chain 1: B1 chain 2 with A101S
chain 2: not shown
B20: DGL736 (bispecific antibody)
chain 1: not shown
chain 2: B1 chain 2
B21: DGL730 (bispecific antibody)
chain 1: B1 chain 2 with F98Y
chain 2: not shown
B22: DGL654 (bispecific antibody)
chain 1: B1 chain 2 with T35N, R62V, Y107F
chain 2: not shown
B23: DGL655 (bispecific antibody)
chain 1: B1 chain 2 with Y32S, T35S, R62V, W103Y
chain 2: not shown
B24: DGL631 (bispecific antibody)
chain 1: not shown
chain 2: EVQLLESGGGLVQPGGSLRLSCAASGFTFSNAWMNWVRQAPGKGLEWVSSISSSSSYIYYADSVKGRFTISRDNSKNTLYLQMNSLRAEDTAVYYCARAVAAGGMFWGLDQWGQGTLVTVTSSGGGGSGGGGSGGGGSQSVLTQPPSASGTPGQRVTISCSGSRSNIGSNSVHWYQQLPGTAPKLLIYGNSNRPSGVPDRFSGSKSGTSASLAISGLRSEDEADYYCQSYDSSLNDHVVFGGGTKLTVLDKTHTCPPCPAPEAAGAPSVFLFPPKPKDTLMISRTPEVTCVVVDVSHEDPEVKFNWYVDGVEVHNAKTKPREEQYNSTYRVVSVLTVLHQDWLNGKEYKCKVSNKALPAPIEKTISKAKGQPREPQVCTLPPSRDELTKNQVSLSCAVKGFYPSDIAVEWESNGQPENNYKTTPPVLDSDGSFFLVSKLTVDKSRWQQGNVFSCSVMHEALHNHYTQKSLSLSPGWSHPQFEK
B25: DGL622 (bispecific antibody)
chain 1: not shown
chain 2: B24 chain 2
B26: DGL621 (bispecific antibody)
chain 1: not shown
chain 2: B24 chain 2
B27: DGL623 (bispecific antibody)
chain 1: not shown
chain 2: B24 chain 2
B28: DGL632 (bispecific antibody)
chain 1: not shown
chain 2: B24 chain 2
B29: DGL630 (bispecific antibody)
chain 1: not shown
chain 2: B24 chain 2

Legend:
[1] = target: ALK-1/BMPR-2 receptor pair of the PathHunter U2Os dimerization cells (DiscoverX 93-0962C3) (UniProt P37023 22-503; Q13873 27-1038); assay: cell-based or functional assay
ALK-1/BMPR-2 receptor pair of the PathHunter U2Os dimerization cells (DiscoverX 93-0962C3), sequence (P37023 22-503, chain 1 of 2): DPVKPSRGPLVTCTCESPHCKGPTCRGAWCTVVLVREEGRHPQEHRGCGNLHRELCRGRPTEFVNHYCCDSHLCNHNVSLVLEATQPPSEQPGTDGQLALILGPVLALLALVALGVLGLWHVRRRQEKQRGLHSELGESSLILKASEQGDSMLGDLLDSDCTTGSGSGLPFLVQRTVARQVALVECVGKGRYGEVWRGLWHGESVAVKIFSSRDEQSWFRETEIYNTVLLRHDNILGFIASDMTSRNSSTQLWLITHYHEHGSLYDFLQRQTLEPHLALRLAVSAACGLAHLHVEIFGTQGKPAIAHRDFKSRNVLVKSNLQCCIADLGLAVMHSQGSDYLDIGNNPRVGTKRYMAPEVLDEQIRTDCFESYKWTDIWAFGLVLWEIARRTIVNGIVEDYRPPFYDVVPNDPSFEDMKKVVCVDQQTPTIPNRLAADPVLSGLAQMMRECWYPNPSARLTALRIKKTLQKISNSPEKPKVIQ
ALK-1/BMPR-2 receptor pair of the PathHunter U2Os dimerization cells (DiscoverX 93-0962C3), sequence (Q13873 27-1038, chain 2 of 2): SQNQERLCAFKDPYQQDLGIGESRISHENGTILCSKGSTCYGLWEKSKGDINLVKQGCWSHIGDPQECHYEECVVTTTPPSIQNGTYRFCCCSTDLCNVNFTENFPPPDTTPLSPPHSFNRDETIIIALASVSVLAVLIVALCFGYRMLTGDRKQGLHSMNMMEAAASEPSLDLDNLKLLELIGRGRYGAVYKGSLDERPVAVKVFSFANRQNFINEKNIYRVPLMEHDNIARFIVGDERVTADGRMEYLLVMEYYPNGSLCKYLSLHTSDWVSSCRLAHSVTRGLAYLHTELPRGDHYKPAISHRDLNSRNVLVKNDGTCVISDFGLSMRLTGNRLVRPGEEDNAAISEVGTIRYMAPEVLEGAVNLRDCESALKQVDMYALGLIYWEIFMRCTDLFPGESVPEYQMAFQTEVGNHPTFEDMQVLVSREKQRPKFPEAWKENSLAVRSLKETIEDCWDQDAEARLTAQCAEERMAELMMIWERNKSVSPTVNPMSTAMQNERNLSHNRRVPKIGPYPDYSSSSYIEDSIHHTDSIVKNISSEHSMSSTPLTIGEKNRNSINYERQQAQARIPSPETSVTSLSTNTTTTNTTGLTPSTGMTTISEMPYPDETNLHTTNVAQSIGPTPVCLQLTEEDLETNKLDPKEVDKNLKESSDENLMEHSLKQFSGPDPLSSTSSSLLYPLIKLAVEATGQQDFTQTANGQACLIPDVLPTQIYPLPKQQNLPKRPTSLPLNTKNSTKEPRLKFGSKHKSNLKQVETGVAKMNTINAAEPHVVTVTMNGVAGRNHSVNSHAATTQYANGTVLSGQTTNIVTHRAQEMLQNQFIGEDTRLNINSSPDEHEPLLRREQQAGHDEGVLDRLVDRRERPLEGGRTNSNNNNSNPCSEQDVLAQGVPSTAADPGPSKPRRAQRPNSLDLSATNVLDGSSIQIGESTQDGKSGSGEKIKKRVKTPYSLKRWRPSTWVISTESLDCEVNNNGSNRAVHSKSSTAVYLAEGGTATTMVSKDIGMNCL

[2] = target: human ALK1 protein (Sino Biological, #10066-H08H) (human, UniProt P37023 22-118); assay: ELISA, coated human ALK1
human ALK1 protein (Sino Biological, #10066-H08H), sequence (P37023 22-118 limits assumed): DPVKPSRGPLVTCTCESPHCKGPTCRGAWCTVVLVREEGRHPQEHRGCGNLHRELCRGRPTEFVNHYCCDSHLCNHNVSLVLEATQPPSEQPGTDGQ
Method: These binders were then tested using an ELISA assay. High binding plates (Corning, 9018) were coated with either 2 μg/ml of human BMPRII protein (Sino Biological, #10551-H08H) or 2 μg/ml of human ALK1 protein (Sino Biological, #10066-H08H) overnight at 4C. The plates were then washed three times with wash buffer (R&D Systems, WA126). […] The plates were then washed three times with wash buffer and DGL antibodies or controls, which were diluted with PBS and 0.1% BSA. The antibodies were incubated for one hour at room temperature and then the plates were washed three times with wash buffer. The plates were then incubated with mouse anti-human IgG Fc secondary—HRP (diluted with PBS/0.1% BSA); 100 ul per well at 2 μg/ml and incubated at room temperature for one hour. The plate was washed three times in wash buffer and then 100 ul TMB (R&D Systems, DY9998B, substrate reagent pack). After the wells turn blue, 50 ul of stop solution (R&D Systems, DY994) was added to each well and the absorbance of the plate was read at 450 nm. results can be found in Table 8.

% Emax BMP9 [1] [%]	Emax (RLU) [1] [RLU]	Abs450 1 nM [2]	Abs450 10 nM [2]	Abs450 100 nM [2]	Binder
72	1.76e+07				B1
60	1.48e+06				B2
68	1.06e+06				B3
22	553000				B4
14	217000				B5
79	2.01e+06				B6
58	1.48e+06				B7
81	2.08e+06				B8
77	1.2e+06				B9
54	845000				B10
58	1.43e+06				B11
30	755000				B12
55	1.36e+06				B13
83	2.13e+06				B14
67	1.71e+06				B15
106	1.65e+06				B16
45	1.15e+06				B17
24	604000				B18
100	1.56e+06				B19
73	1.13e+06				B20
22	342000				B21
76	1.87e+06				B22
18	437000				B23
13	470000	0.07	0.19	0.7	B24
25	936000	0.15	0.75	1.58	B25
30	1.09e+06	0.17	0.95	1.58	B26
30	1.11e+06	0.14	0.61	1.43	B27
4	130000	0.06	0.05	0.06	B28
5	168000	0.07	0.07	0.08	B29
